Experimental data published in patent US20260258115A1 (MAPP BIOPHARMACEUTICAL, published 2026).
Residue numbers refer to the chain shown, from its start.

B1: ADI-24840 (antibody, V domains shown)
VH: EVQLLESGGGLVKPGGSLRLSCAASGFTFSSYSMNWVRQAPGKGLEWVSSISSSSSYIYYADSVKGRFTISRDNAKNSLYLQMNSLRAEDTAVYYCARDQVYSYGYYFDYWGQGTLVTVSS
VL: QSVLAQPPSVSGAPGQRVTISCTGSSSNIGAGYDVHWYQQLPGTAPKLLIYGNSNRPSGVPDRFSGSKSGTSASLAITGLQAEDEADYYCQSYDSSLSGSHVVFGGGTKLTVL
notes: full-length IgG
B2: ADI-19507 (antibody, V domains shown)
VH: EVQLVESGGGLVKPGGSLRLSCAASGFTFSSYSMNWVRQAPGKGLEWVSSISSSSSYIYYADSVKGRFTISRDNAKNSLYLQMNSLRAEDTAVYYCAREVLTGDYLGWFDPWGQGTLVTVSS
VL: QSVVTQPPSVSGAPGQRVTISCTGSSSNIGAGYDVHWYQQLPGTAPKLLIYGNSNRPSGVPDRFSGSKSGTSASLAITGLQAEDEADYYCQSYDSSHWVFGGGTKLTVL
notes: full-length IgG
B3: ADI-19465 (antibody, V domains shown)
VH: EVQLVESGGGLVKPGGSLRLSCAASGFTFSSYSMNWVRQAPGKGLEWVSSISSSSSYIYYADSVKGRFTISRDNAKNSLYLQMNSLRAEDTAVYYCAREGSSSWYYFDYWGQGTLVTVSS
VL: QSVVTQPPSVSGAPGQRVTISCTGSSSNIGAGYDVHWYQQLPGTAPKLLIYGNSNRPSGVPDRFSGSKSGTSASLAITGLQAEDEADYYCQSYDSSLSGPWVFGGGTKLTVL
notes: full-length IgG; also called Ab 170
B4: ADI-25472 (antibody, V domains shown)
VH: B3 VH with E99D, G100D
VL: QSVLTQPPSVSGAPGQRVTISCTGSSSNIGAGYDVHWYQQLPGTAPKLLIYGNSNRPSGVPDRFSGSKSGTSASLAITGLQAEDEADYYCQSYDSSLSGYVFGTGTKVTVL
notes: full-length IgG
B5: ADI-24826 (antibody, V domains shown)
VH: B3 VH with E99D, G100R, S101G, S102Y, S103G, W104S, Y105G, Y106A, F107L
VL: QPVLTQPASVSGSPGQSITISCTGTSSDVGGYNYVSWYQQHPGKAPKLMIYDVSNRPSGVSNRFSGSKSGNTASLTISGLQAEDEADYYCSSYTSSSTVVFGGGTKLTVL
notes: full-length IgG; also called Ab 388
B6: ADI-24848 (antibody, V domains shown)
VH: B3 VH with E99D, G100T, S101V, S102V, S103A, W104G, Y105I
VL: B4 VL with Y100V, T104G, V108L
notes: full-length IgG
B7: ADI-22771 (antibody, V domains shown)
VH: B3 VH with E99D, G100Y, S103G
VL: B4 VL with S2P, Y100S, T104G, V108L
notes: full-length IgG; also called Ab 350
B8: ADI-24856 (antibody, V domains shown)
VH: QVQLVQSGAEVKKPGASVKVSCKASGYTFTSYGISWVRQAPGQGLEWMGWISAYNGNTNYAQKLQGRVTMTTDTSTSTAYMELRSLRSDDTAVYYCARAGIVVVPKYYYYMDVWGKGTTVTVSS
VL: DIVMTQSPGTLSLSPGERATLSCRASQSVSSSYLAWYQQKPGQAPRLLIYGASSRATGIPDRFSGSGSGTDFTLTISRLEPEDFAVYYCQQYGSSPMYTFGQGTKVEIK
notes: full-length IgG
B9: ADI-19460 (antibody, V domains shown)
VH: QVQLQQWGAGLLKPSETLSLTCAVYGGSFSGYYWSWIRQPPGKGLEWIGEINHSGSTNYNPSLKSRVTISVDTSKNQFSLKLSSVTAADTAVYYCARGGITAYYYYYGMDVWGQGTTVTVSS
VL: not shown
notes: full-length IgG
B10: ADI-24833 (antibody, V domains shown)
VH: QVQLVESGGGLVKPGGSLRLSCAASGFTFSSYSMNWVRQAPGKGLEWVSSISSSSSYIYYADSVKGRFTISRDNAKNSLYLQMNSLRAEDTAVYYCARALTYYYDSSGHGADYWGQGTLVTVSS
VL: QSVVTQPPSVSGAPGQRVTISCTGSSSNIGAGYDVHWYQQLPGTAPKLLIYGNSNRPSGVPDRFSGSKSGTSASLAITGLQAEDEADYYCQSYDSSLSVVFGGGTKLTVL
notes: full-length IgG
B11: ADI-24861 (antibody, V domains shown)
VH: QVQLVQSGGGLVKPGGSLRLSCAASGFTFSSYSMNWVRQAPGKGLEWVSSISGGSSYIYYADSVKGRFTISRDNAKNSLYLQMNSLRAEDTAVYYCAREAYYYDSSGLKWFDPWGQGTLVTVSS
VL: B10 VL with V4L, S98G, V99W
notes: full-length IgG
B12: ADI-24847 (antibody, V domains shown)
VH: EVQLVESGGGLVKPGGSLRLSCAASGFTFSSYSMNWVRQAPGKGLEWVSSISSSSNYIYYADSVKGRFTISRDNAKNSLYLQMNSLRAEDTAVYYCARDRIAAYTFDYWGQGTLVTVSS
VL: B10 VL with S98P, V99Y, G103T, L107V
notes: full-length IgG
B13: ADI-24855 (antibody, V domains shown)
VH: EVQLVESGGGLVKPGGSLRLSCAASGFTFSSYSMNWVRQAPGKGLEWVSSISSSSSYIYYADSVKGRFTISRDNAKNSLYLQMNSLRAEDTAVYYCARRYCTNGVCYDAFDIWGQGTMVTVSS
VL: B10 VL with V99Y, G103T, L107V
notes: full-length IgG
B14: ADI-24820 (antibody, V domains shown)
VH: QVQLVQSGAEVKKPGSSVKVSCKASGGTFSSYTISWVRQAPGQGLEWMGRIIPILGIANYAQKFQGRVTITADKSTSTAYMELSSLRSEDTAVYYCARDPPYLRAFDIWGQGTTVTVSS
VL: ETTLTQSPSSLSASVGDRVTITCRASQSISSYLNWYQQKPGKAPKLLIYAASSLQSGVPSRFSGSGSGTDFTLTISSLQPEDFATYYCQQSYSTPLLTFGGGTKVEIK
notes: full-length IgG
B15: ADI-24811 (antibody, V domains shown)
VH: QVQLVQSGAEVKKPGASVKVSCKASGYTFTSYDINWVRQATGQGLEWMGWMNPNSGNTGYAQKFQGRVTMTRNTSISTAYMELSSLRSEDTAVYYCARGLPGQWLEYYFDYWGQGTLVTVSS
VL: SYVLTQPPSVSVAPGKTARITCGGNNIGSKSVHWYQQKPGQAPVLVIYYDSDRPSGIPERFSGSNSGNTATLTISRVEAGDEADYYCQVWDSSSDHPVFGGGTKVTVL
notes: full-length IgG
B16: ADI-24815 (antibody, V domains shown)
VH: EVQLVESGGGLVKPGGSLRLSCAASGFTFSSYSMNWVRQAPGKGLEWVSSISSSSSYIYYADSVKGRFTISRDNAKNSLYLQMNSLRAEDTAVYYCAREGYSSSSGYYYMDVWGKGTTVTVSS
VL: B4 VL with Y100S
notes: full-length IgG
B17: ADI-24836 (antibody, V domains shown)
VH: EVQLLESGGGLVQPGRSLRLSCAASGFTFDDYAMHWVRQAPGKGLEWVSGISWNSGSIGYADSVKGRFTISRDNAKNSLYLQMNSLRAEDTALYYCAKDLRGGTYYYYGMDVWGQGTTVTVSS
VL: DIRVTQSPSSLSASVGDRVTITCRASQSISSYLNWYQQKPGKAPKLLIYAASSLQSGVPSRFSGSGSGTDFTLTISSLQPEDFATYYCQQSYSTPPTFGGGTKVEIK
notes: full-length IgG

target: T1, RSV postfusion F (postF), subtype A (respiratory syncytial virus subtype A, UniProt P03420 26-513); test: BLI
T1 construct: also called Postfusion subtype A; F deltaFP

Binder	binding result
B1	no binding
B2	no binding
B3	no binding
B4	no binding
B5	no binding
B6	no binding
B7	no binding
B8	no binding
B9	no binding
B10	no binding
B11	no binding
B12	no binding
B13	no binding
B14	no binding
B15	no binding
B16	no binding
B17	no binding

target: T2, RSV prefusion F (preF), subtype B (respiratory syncytial virus subtype B); test: BLI, IgG
T2 construct: also called Prefusion subtype B

Binder	Kd
B1	7.8 nM
B2	10.1 nM
B3	19.4 nM
B4	37.7 nM
B5	9.03 nM
B6	35.6 nM
B7	9.41 nM
B8	4.91 nM
B9	6.01 nM
B10	11.4 nM
B11	0.461 nM
B12	40 nM
B13	28 nM
B14	38.5 nM
B15	4.29 nM
B16	29.1 nM
B17	3.44 nM
